# Positions count from the first letter of the chain named. Names may count otherwise.
# B1: wild-type human cystathionine γ-lyase (enzyme, UniProt P32929 1-405, looked up)
# chain: MQEKDASSQGFLPHFQHFATQAIHVGQDPEQWTSRAVVPPISLSTTFKQGAPGQHSGFEYSRSGNPTRNCLEKAVAALDGAKYCLAFASGLAATVTITHLLKAGDQIICMDDVYGGTNRYFRQVASEFGLKISFVDCSKIKLLEAAITPETKLVWIETPTNPTQKVIDIEGCAHIVHKHGDIILVVDNTFMSPYFQRPLALGADISMYSATKYMNGHSDVVMGLVSVNCESLHNRLRFLQNSLGAVPSPIDCYLCNRGLKTLHVRMEKHFKNGMAVAQFLESNPWVEKVIYPGLPSHPQHELVKRQCTGCTGMVTFYIKGTLQHAEIFLKNLKLFTLAESLGGFESLAELPAIMTHASVLKNDRDVLGISDTLIRLSVGLEDEEDLLEDLDQALKAAHPPSGSHS
# notes: human cystathionine γ-lyase (CSE), wild type; TEV and 3C protease recognition sites follow the His6 tag; No cleavage of the tag is told; also called CSE; WT CSE; source: recombinant, synthetic gene in pET-28b, purified (HisTrap FF Crude, Superdex 200 SEC)
# B2: human cystathionine γ-lyase C84S variant (enzyme, UniProt P32929 1-405, looked up)
# chain: B1 chain with C84S
# notes: human cystathionine γ-lyase (CSE) with C84S; TEV and 3C protease recognition sites follow the His6 tag; also called C84S CSE; source: recombinant, pET-28b, site-directed mutagenesis of the WT vector, purified (HisTrap FF Crude, Superdex 200 SEC)
# B3: human cystathionine γ-lyase C172S variant (enzyme, UniProt P32929 1-405, looked up)
# chain: B1 chain with C172S
# notes: human cystathionine γ-lyase (CSE) with C172S; TEV and 3C protease recognition sites follow the His6 tag; also called C172S CSE; source: recombinant, pET-28b, site-directed mutagenesis of the WT vector, purified (HisTrap FF Crude, Superdex 200 SEC)
# B4: human cystathionine γ-lyase C109S variant (enzyme, UniProt P32929 1-405, looked up)
# chain: B1 chain with C109S
# notes: human cystathionine γ-lyase (CSE) with C109S; TEV and 3C protease recognition sites follow the His6 tag; also called C109S CSE; source: recombinant, pET-28b, site-directed mutagenesis of the WT vector, purified (HisTrap FF Crude, Superdex 200 SEC)
# B5: human cystathionine γ-lyase C70S variant (enzyme, UniProt P32929 1-405, looked up)
# chain: B1 chain with C70S
# notes: human cystathionine γ-lyase (CSE) with C70S; TEV and 3C protease recognition sites follow the His6 tag; also called C70S CSE; source: recombinant, pET-28b, site-directed mutagenesis of the WT vector, purified (HisTrap FF Crude, Superdex 200 SEC)
# B6: human cystathionine γ-lyase C229S variant (enzyme, UniProt P32929 1-405, looked up)
# chain: B1 chain with C229S
# notes: human cystathionine γ-lyase (CSE) with C229S; TEV and 3C protease recognition sites follow the His6 tag; also called C229S CSE; source: recombinant, pET-28b, site-directed mutagenesis of the WT vector, purified (HisTrap FF Crude, Superdex 200 SEC)
# B7: human cystathionine γ-lyase C310S variant (enzyme, UniProt P32929 1-405, looked up)
# chain: B1 chain with C310S
# notes: human cystathionine γ-lyase (CSE) with C310S; TEV and 3C protease recognition sites follow the His6 tag; also called C310S CSE; source: recombinant, pET-28b, site-directed mutagenesis of the WT vector, purified (HisTrap FF Crude, Superdex 200 SEC)
# B8: human cystathionine γ-lyase C137S variant (enzyme, UniProt P32929 1-405, looked up)
# chain: B1 chain with C137S
# notes: human cystathionine γ-lyase (CSE) with C137S; TEV and 3C protease recognition sites follow the His6 tag; also called C137S CSE; source: recombinant, pET-28b, site-directed mutagenesis of the WT vector, purified (HisTrap FF Crude, Superdex 200 SEC)
# B9: human cystathionine γ-lyase C307S variant (enzyme, UniProt P32929 1-405, looked up)
# chain: B1 chain with C307S
# notes: human cystathionine γ-lyase (CSE) with C307S; TEV and 3C protease recognition sites follow the His6 tag; also called C307S CSE; source: recombinant, pET-28b, site-directed mutagenesis of the WT vector, purified (HisTrap FF Crude, Superdex 200 SEC)
# Target: the molecule itself
# Test: SEC; HiLoad 16/600 Superdex 200 in buffer B (20 mM Tris-HCl, pH 7.5, 150 mM NaCl, 10% glycerol, 100 μM TCEP, 20 μM PLP), after the HisTrap step of the purification
row,Protein,stoichiometry N
1,B1,4
2,B2,4
3,B3,4
4,B4,4
5,B5,4
6,B6,4
7,B7,4
8,B8,4
9,B9,4
